Reference: article doi:10.1101/2021.01.26.428356, “Sequence signatures of two IGHV3-53/3-66 public clonotypes to SARS-CoV-2 receptor binding domain” (bioRxiv, 2021)

B1: CC12.3 Fab, Y58 variant (heavy chain F58Y) (Fab, V domains shown)
VH: QVQLVESGGGLIQPGGSLRLSCAASGFTVSSNYMSWVRQAPGKGLEWVSVIYSGGSTYYADSVKGRFTISRDNSKSTLYLQMNSLRVEDTAVYYCARDFGDFYFDYWGQGTLVTVSS
VL: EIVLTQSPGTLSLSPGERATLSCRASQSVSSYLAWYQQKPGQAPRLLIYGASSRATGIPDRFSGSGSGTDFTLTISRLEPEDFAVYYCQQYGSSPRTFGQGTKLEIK
notes: also called CC12.3 Y58
B2: COVA2-20 Fab, F58 variant (heavy chain Y58F) (Fab, V domains shown)
VH: EVQLVESGGGLIQPGGSLRLSCAASGFTVSSNYMSWVRQAPGKGLEWVSVIYSGGSTFYADSVKGRFTISRDNSKNTLYLQMNSLRAEDTAVYYCASPLLLTPPDYYYYMDVWGKGTMVTVSS
VL: DVVMTQSPSSLSVSVGDRVTITCRASQGIRNDLGWYQQKPGKAPKRLIYAASSLQSGVPSRFSGSGSGTEFTLTISSLQPEDFATYYCLQHNSYLWTFGQGTKLEIK
notes: also called COVA2-20 F58

Biological target: T1, Fc-tagged receptor-binding domain (RBD) of the SARS-CoV-2 spike (S) protein (SARS-CoV-2, Wuhan-Hu-1 (GenBank …, UniProt P0DTC2))
T1 construct: also called SARS-CoV-2 RBD; SARS-CoV-2 S RBD-Fc; not shown: Fc, C-terminal, kept
Assay: BLI; Octet Red96e; Fc-tagged RBD loaded onto the biosensor (streptavidin biosensors as printed), Fab in solution; 1x PBS pH 7.4, 0.01% w/v BSA, 0.002% v/v Tween 20; 60 s association, 60 s dissociation; 1:1 binding model
Details: both partners purified

Binder	binding result
B1	binds
B2	binds
